Experimental data as given in article PMC7226950.

Key:
[1] = molecular target: NY-ESO peptide on HLA-A*02:01 (human); assay: data from [41,42]; reprinted in Table 1
[2] = molecular target: NY-ESO, mutated peptide ESO4D (4D, 9V) peptide on HLA-A*02:01 (human); assay: data from [41,42]; reprinted in Table 1
[3] = molecular target: NY-ESO peptide on HLA-A*02:01 (human); assay: data from [41,42]; experimental binding affinity data reprinted in Table 1

koff [1]: 0.82 s⁻¹
kon [1]: 57000 M⁻¹ s⁻¹
t1/2 [1]: 0.84 s
Kd [2]: 252 µM
koff [2]: 2.59 s⁻¹
kon [2]: 10000 M⁻¹ s⁻¹
t1/2 [2]: 0.27 s
Kd [3]: 14 µM
Substance: 1G4
